The source of these data is patent US20130273020A1, “ANTIFUNGAL COMPOSITION” (COMVITA NEW ZEALAND LIMITED, priority 2010, published 2013).

What all share (format): cell-based
Experiment [1] concerns Candida albicans. Nature of the experiment: Candida albicans growth by optical density, every 2 hrs up to 24 hrs (Example 1). To be noted: single component alone, FIGS. 1 and 2. The procedure: In this example, a manuka honey was mixed with lactoferrin at varying concentrations and the degree of Candida albicans growth was measured and compared to each of the individual components alone. Samples of honey alone being a manuka honey with a UMF rating of ˜15 were collected. The honey was diluted with distilled water to honey concentrations of 12.5, 11.25, 10, 8.75, 7.5 and 0% (w/v). Samples of lactoferrin alone were also collected and similarly diluted with distilled water to concentrations of 5 mg/mL (5%), 4.5 mg/mL (4.5%), 4 mg/mL (4%), 3.5 mg/mL (3.5%), 3 mg/mL (3%) and 0% (w/v). Mixed samples were then produced using honey concentrations of 12.5, 11.25, 10, 8.75, 7.5 and 0% (w/v) along with lactoferrin at a concentration of 5 mg/mL of lactoferrin. Four replications were completed for each of the samples. Microbial growth for each of the samples was then measured every 2 hrs continuously for up to 24 hrs, determined by measuring the optical density of the mixture.

The test system of experiment [2] is Candida albicans. As to the kind of experiment: Candida albicans growth curves at 28° C. by absorbance (540 nm), percentage inhibition vs media alone (Examples 2 and 3). To be noted: lactoferrin used in isolation, 0.2% and 0.6% w/v; FIG. 5. The procedure: A further experiment was completed measuring the growth curves of Candida albicans grown at 28° C. measured by absorbance (540 nm). […] Catalase was added to remove any confounding effects from hydrogen peroxide. As may be appreciated, the peroxide effect can vary between and within honeys giving rise to poor results that are difficult to interpret. Removal of the peroxide effect gives clearer result. It should be noted that a lower growth temperature than usual was used to prevent filamentous growth, which is an artifact of these Candida assays. The results found were clean easily measurable results and were verified under a microscope to be accurate. A further experiment was completed measuring the percentage inhibition expressed as a proportion of Candida albicans growth in media alone. […] Catalase was added to remove the peroxide effect noted above.

Experiment [3] has as its system Candida albicans. As to the kind of experiment: Candida albicans broth microtitre plate growth assay, absorbance at 650 nm, 28° C. (Example 4). To be noted: honey alone (10% w/v, catalase) or lactoferrin alone (2.5-10 mg/ml); FIG. 6. The procedure: A further set of Candida albicans repeat trials were completed where the growth of Candida albicans cultures in broth was measured when subjected to a 10% w/v manuka honey with catalase and lactoferrin treatments ranging from 2.5-10 mg/ml. To prevent filamentous growth, the assay temperature was 28° C. as used previously. The assay was a broth microtitre plate set-up. Growth was measured by absorbance at 650 nm. Catalase was added to remove the peroxide effect noted above.

B1: lactoferrin (protein, UniProt P02788 20-710, looked up)
Lactotransferrin: GRRRSVQWCAVSQPEATKCFQWQRNMRKVRGPPVSCIKRDSPIQCIQAIAENRADAVTLDGGFIYEAGLAPYKLRPVAAEVYGTERQPRTHYYAVAVVKKGGSFQLNELQGLKSCHTGLRRTAGWNVPIGTLRPFLNWTGPPEPIEAAVARFFSASCVPGADKGQFPNLCRLCAGTGENKCAFSSQEPYFSYSGAFKCLRDGAGDVAFIRESTVFEDLSDEAERDEYELLCPDNTRKPVDKFKDCHLARVPSHAVVARSVNGKEDAIWNLLRQAQEKFGKDKSPKFQLFGSPSGQKDLLFKDSAIGFSRVPPRIDSGLYLGSGYFTAIQNLRKSEEEVAARRARVVWCAVGEQELRKCNQWSGLSEGSVTCSSASTTEDCIALVLKGEADAMSLDGGYVYTAGKCGLVPVLAENYKSQQSSDPDPNCVDRPVEGYLAVAVVRRSDTSLTWNSVKGKKSCHTAVDRTAGWNIPMGLLFNQTGSCKFDEYFSQSCAPGSDPRSNLCALCIGDEQGENKCVPNSNERYYGYTGAFRCLAENAGDVAFVKDVTVLQNTDGNNNEAWAKDLKLADFALLCLDGKRKPVTEARSCHLAMAPNHAVVSRMDKVERLKQVLLHQQAKFGRNGSDCPDKFCLFQSETKNLLFNDNTECLARLHGKTTYEKYLGPQYVAGITNLKKCSTSPLLEACEFLRK
notes: metal chelator that scavenges free transition metal ions, specifically iron
B1: the “difference to controls without honey or lactoferrin after 24 hours” value with Candida albicans [1] (after 24 hours) is on record as “little difference”. In addition, in the experiment on Candida albicans [1] (honey 7.5-12.5% (w/v) or lactoferrin 3-5 mg/mL), the “degree of inhibition of microbial growth” value is listed as “relatively low”. In addition, the “percentage inhibition as a proportion of growth in media alone” value with Candida albicans [2] is given as “negligible effects”. Also, the inhibition of growth result in the experiment on Candida albicans [3] is given as “minimal inhibition”.
